Target: HA ectodomain trimer (UniProt Q289M7 18-528)
Assay: Octet

B1: CR9114 (Fab, V domains shown)
VH: QVQLVQSGAEVKKPGSSVKVSCKSSGGTSNNYAISWVRQAPGQGLDWMGGISPIFGSTAYAQKFQGRVTISADIFSNTAYMELNSLTSEDTAVYFCARHGNYYYYSGMDVWGQGTTVTVSS
VL: SYVLTQPPAVSGTPGQRVTISCSGSDSNIGRRSVNWYQQFPGTAPKLLIYSNDQRPSVVPDRFSGSKSGTSASLAISGLQSEDEAEYYCAAWDDSLKGAVFGGGTQLTVL
Kd: < 1 pM
